Target: T1, WT Aβ (1–10)
T1 chain: DAEFRHDSGY
Test: native MS; IM-MS of oligomers of one Aβ fragment alone; Aβ (1–10) and Aβ (1–16) 600 µM, 10 mM NH4OAc; oligomers of many sizes seen, a printed size is the largest one
Details: remark: other sources report otherwise

DAEFRHDSGY [WT Aβ (1–10)]
stoichiometry N: 19

From article PMC6834639
